Measurements published in patent US6866997.

How the values were obtained:
[1] = system: anti-ras lead zinc finger peptide (designed) (synthetic); conditions: apparent Kd; phage display
[2] = system: anti-ras optimised zinc finger peptide (F1 position +3 Asn) (synthetic); conditions: apparent Kd; phage display, Zn
[3] = molecular target: F2-Arg finger 3 Asp2Ala finger 3 helix position 2 D to A (synthetic) (UniProt P08046); conditions: about four-fold reduced affinity versus F2-Arg; phage ELISA, Zn, 20 C
[4] = molecular target: Zif268 DNA-binding domain finger 3 Asp2Ala finger 3 helix position 2 D to A (UniProt P08046); conditions: about four-fold reduced affinity versus wild-type Zif268; phage ELISA, Zn, 20 C

## GACGGCGCC (double strand)
[1]
  Kd: 17 nM
[2]
  Kd: 3 nM

## GCGGTGGCG (double strand) [F2-Arg consensus site]
[3]
  binding signal: 4 fold

## GCGTGGGCG (double strand) [Zif268 consensus site]
[4]
  binding signal: 4 fold
